Data from article PMC11615228, “3D variability analysis reveals a hidden conformational change controlling ammonia transport in human asparagine synthetase” (Nature Communications, 2024).
Numbering of substitutions follows the chain as printed. Names and notes keep the numbering of the source.

B1: wild-type (WT) human asparagine synthetase (ASNS) (enzyme, UniProt P08243 1-561, looked up)
chain: MCGIWALFGSDDCLSVQCLSAMKIAHRGPDAFRFENVNGYTNCCFGFHRLAVVDPLFGMQPIRVKKYPYLWLCYNGEIYNHKKMQQHFEFEYQTKVDGEIILHLYDKGGIEQTICMLDGVFAFVLLDTANKKVFLGRDTYGVRPLFKAMTEDGFLAVCSEAKGLVTLKHSATPFLKVEPFLPGHYEVLDLKPNGKVASVEMVKYHHCRDVPLHALYDNVEKLFPGFEIETVKNNLRILFNNAVKKRLMTDRRIGCLLSGGLDSSLVAATLLKQLKEAQVQYPLQTFAIGMEDSPDLLAARKVADHIGSEHYEVLFNSEEGIQALDEVIFSLETYDITTVRASVGMYLISKYIRKNTDSVVIFSGEGSDELTQGYIYFHKAPSPEKAEEESERLLRELYLFDVLRADRTTAAHGLELRVPFLDHRFSSYYLSLPPEMRIPKNGIEKHLLRETFEDSNLIPKEILWRPKEAFSDGITSVKNSWFKILQEYVEHQVDDAMMANAAQKFPFNTPKTKEGYYYRQVFERHYPGRADWLSHYWMPKWINATDPSARTLTHYKSAVKA
notes: human asparagine synthetase (glutamine-hydrolysing), unmodified recombinant enzyme; the N-terminal residue is Cys-1 (initiator Met removed) and the C-terminal tail ends at residue 560; Cys-1 is C2 in P08243); No tag is stated for the WT enzyme; the variants were purified on Ni-NTA, so the WT construct may also carry a His tag; Residues 201-220, 465-475 and 539-560 have no density in the EM map …
B2: R142I ASNS variant (human asparagine synthetase with Arg-142 replaced by isoleucine) (enzyme, UniProt P08243 1-561, looked up)
chain: B1 chain with R143I
notes: human asparagine synthetase with R142I; only elution from Ni-NTA with imidazole is described; also called R142I variant; ASNS R142I; source: Sf9 cells (baculovirus), purified (Ni-NTA, PD-10 buffer exchange)

Molecular target: the molecule itself
Experiment: cryo-EM structure; single-particle cryo-EM of the purified enzyme without ligands; 25 mM Tris-HCl pH 8.0, 200 mM NaCl, 5 mM DTT; WT at 9.0 mg/mL, R142I at 3.2 mg/mL; grids made at 4 °C; C2 symmetry imposed

Protein	stoichiometry N
B1	2
B2	2
